Source: paper PMC6827286

T1: colFD-NL
T1 chain: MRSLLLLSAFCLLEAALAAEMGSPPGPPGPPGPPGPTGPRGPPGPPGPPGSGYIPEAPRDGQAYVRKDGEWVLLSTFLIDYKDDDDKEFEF


What was measured:
colFD-NL [1] = target: T1, colFD-NL; assay: BRET; settings: chain shown with the change; in the ER of HEK293 cells; n = 4; parent: est. 100; read off a plot
colFD-NL [2] = target: T1, colFD-NL; assay: BRET; settings: chain shown with the change; in the ER of HEK293 cells; n = 4; parent: est. 100; read off a plot
[3] = target: Collagen (pig's skin type I-C (Nitta Gelatin Inc.)) (pig); assay: SPR; Biacore T200; collagen amine-coupled to a CM5 chip (∼2,000 response units), rmHsp47 injected; 10 mM HEPES, 0.15 M NaCl, 0.05% surfactant P20, pH 7.4; 25 °C; kobs linearization method (Anabel)

Binder	percent of parent (colFD-NL [1]) [%]	percent of parent (colFD-NL [2]) [%]	Kd [3] [µM]
Hsp47-HT, P19324 I352A (protein) AEVKKPLEAAAPGTAEKLSSKATTLAERSTGLAFSLYQAMAKDQAVENILLSPLVVASSLGLVSLGGKATTASQAKAVLSAEKLRDEEVHTGLGELLRSLSNSTARNVTWKLGSRLYGPSSVSFADDFVRSSKQHYNCEHSKINFRDKRSALQSINEWASQTTDGKLPEVTKDVERTDGALLVNAMFFKPHWDEKFHHKMVDNRGFMVTRSYTVGVTMMHRTGLYNYYDDEKEKLQMVEMPLAHKLSSLIILMPHHVEPLERLEKLLTKEQLKAWMGKMQKKAVAISLPKGVVEVTHDLQKHLAGLGLTEAIDKNKADLSRMSGKKDLYLASVFHATAFEWDTEGNPFDQDAYGREELRSPKLFYADHPFIFLVRDNQSGSLLFIGRLVRPKGDKMRDEL	86	85	
recombinant mouse Hsp47 (rmHsp47) WT (natural protein) AEVKKPLEAAAPGTAEKLSSKATTLAERSTGLAFSLYQAMAKDQAVENILLSPLVVASSLGLVSLGGKATTASQAKAVLSAEKLRDEEVHTGLGELLRSLSNSTARNVTWKLGSRLYGPSSVSFADDFVRSSKQHYNCEHSKINFRDKRSALQSINEWASQTTDGKLPEVTKDVERTDGALLVNAMFFKPHWDEKFHHKMVDNRGFMVTRSYTVGVTMMHRTGLYNYYDDEKEKLQMVEMPLAHKLSSLIILMPHHVEPLERLEKLLTKEQLKAWMGKMQKKAVAISLPKGVVEVTHDLQKHLAGLGLTEAIDKNKADLSRMSGKKDLYLASVFHATAFEWDTEGNPFDQDIYGREELRSPKLFYADHPFIFLVRDNQSGSLLFIGRLVRPKGDKMRDEL			1.5
recombinant mouse Hsp47 (rmHsp47) I352A (natural protein) AEVKKPLEAAAPGTAEKLSSKATTLAERSTGLAFSLYQAMAKDQAVENILLSPLVVASSLGLVSLGGKATTASQAKAVLSAEKLRDEEVHTGLGELLRSLSNSTARNVTWKLGSRLYGPSSVSFADDFVRSSKQHYNCEHSKINFRDKRSALQSINEWASQTTDGKLPEVTKDVERTDGALLVNAMFFKPHWDEKFHHKMVDNRGFMVTRSYTVGVTMMHRTGLYNYYDDEKEKLQMVEMPLAHKLSSLIILMPHHVEPLERLEKLLTKEQLKAWMGKMQKKAVAISLPKGVVEVTHDLQKHLAGLGLTEAIDKNKADLSRMSGKKDLYLASVFHATAFEWDTEGNPFDQDAYGREELRSPKLFYADHPFIFLVRDNQSGSLLFIGRLVRPKGDKMRDEL			3.3
recombinant mouse Hsp47 (rmHsp47) Y353A (natural protein) AEVKKPLEAAAPGTAEKLSSKATTLAERSTGLAFSLYQAMAKDQAVENILLSPLVVASSLGLVSLGGKATTASQAKAVLSAEKLRDEEVHTGLGELLRSLSNSTARNVTWKLGSRLYGPSSVSFADDFVRSSKQHYNCEHSKINFRDKRSALQSINEWASQTTDGKLPEVTKDVERTDGALLVNAMFFKPHWDEKFHHKMVDNRGFMVTRSYTVGVTMMHRTGLYNYYDDEKEKLQMVEMPLAHKLSSLIILMPHHVEPLERLEKLLTKEQLKAWMGKMQKKAVAISLPKGVVEVTHDLQKHLAGLGLTEAIDKNKADLSRMSGKKDLYLASVFHATAFEWDTEGNPFDQDIAGREELRSPKLFYADHPFIFLVRDNQSGSLLFIGRLVRPKGDKMRDEL			3.6
